# Experimental data taken from patent US20150044137A1 (UNITED STATES OF AMERICA AS REPRESENTED BY THE SECRETARY …, published 2015).
# What was measured:
# [1] = target: RSC3 probe; test: ELISA-type plate assay (OD450), mAb titrated on RSC3 [panel VRC14b]
# [2] = target: RSC3 probe; test: ELISA-type plate assay (OD450), mAb titrated on RSC3 [panel VRC14]
# [3] = target: RSC3 probe; test: ELISA-type plate assay (OD450), mAb titrated on RSC3 [panel VRC14c]
# [4] = target: T1, Yu2 gp120 HIV-1 Env protein (HIV-1 (strain Yu2), UniProt P35961 32-498)
# [5] = target: T1, Yu2 gp120 HIV-1 Env protein; test: ELISA-type plate assay (OD450), mAb titrated on Yu2 gp120 WT
binder,measurement,setting,value
"VRC14b (antibody, V domains shown) VH: QVQLVQSGTALKSPGSSAKLSCTVLGDEFGTYFISWIRQAPGQGLEWVGGIVPHSQLQSSAQKFHGRITISAGAGVTPPVVSLQLTNLTFEDTGTYFCARERGRHRDPKTGDALRGRYFDFWGRGTGVRVST VL: QSALTQPAFVSGSPGQSITLSCTLGTEDVSWYQQRPNSAPRLIIFDVKKRPSDVSDRFSGHNSDTAAFLTISELRPEDEAEYFCTSWPYRFGRGTKVDVA",EC50 (read off the curve),[1],~7 ng/mL
"VRC14 (antibody, V domains shown, also called mAb VRC14) VH: QVQLVQSGTALKSPGSSAKLSCTVLGDEFGTYFISWIRQAPGQGLEWVGGIVPHSQLQSSAQKFHGRIIISAGAGVTPPVVSLQLTNLTFEDTGTYFCARERGRHRDPKTGDALRGRYFDFWGRGTGLRVST VL: QSALTQPAFVSGSPGQSITLSCSLGTADVSWYQQRPNSAPRLIIFDVKKRPSDVSDRFSGHNSDTAAFVTISELRPEDEAEYFCTSWPYRFGPGTKVDVAR",EC50 (read off the curve),[2],~6 ng/mL
"VRC14c (antibody, V domains shown) VH: QVQLVQSGTALKSPGSSAKLSCTVLGDEFGTYFISWIRQAPGQGLEWVGGIVPHSQLQSSAQKFHGRIIISAGAGVTPPVVSLQLTNLTFEDTGTYFCARERGRHRDPKTGKAPRGRYFDFWGRGTGVTVSA VL: QSALTQPAFVSGSPGQSITLSCTLGTEDVSWYQQRPNSAPRLIIFDVKKRPSDVSDRFSGHNSDTAAFLTISELRPEDEADYFCTSWPYRFDRGTKVDVA",EC50 (read off the curve),[3],~20 ng/mL
"VRC13 (antibody, V domains shown) VH: QVQLVQPGTAMKSLGSSLTITCRVSGDDLGSFHFGTYFMIWVRQAPGQGLEYMGGILPSTKTPTYAHKFRGRVSISAPGVPPVLSLALTNLTYDDTATYFCARERGRHFEPKNRDNLEGKFFDLWGRGTFVRVSP VL: QSALTQPASVSGSPGQSINISCAGRSDRVSWYQQRPNGVPKLLMFDVYRRPSGVSDRFSGSHSGDTAFLTISGLQTEDEADYYCTSHPYAFGAGTKVNVLR",IC50 (read off the curve),[4],~400 ng/mL
"VRC16b (antibody, V domains shown) VH: EVQLSESGGGVVKPGGSLRLSCEASGFTFSNYAMSWVRQAPGKGLEWVSVTGGHGTYGYYGEFVKGRFTISRDHSMDTVYLQMNRLRVEDTAVYYCVRTPYYHESSGYYYRAGNYFDFWGKGTLVIVSA VL: DIQMTQSPSSLSASVGDRVTITCRASQDIANYLNWYQKKSGTPPKLLIFAATNLHRGVSPRFSGSGSGTHFSLTITNVQYEDFANYFCQHSFGTIGTFGQGTWVDIR",EC50 (read off the curve),[5],~20 ng/mL
"VRC16c (antibody, V domains shown) VH: EVQLSESGGGFVKPGGSLRLSCEASGFTFNNYAMSWVRQAPGKGLEWVSVTSAHGGSAYYGEFVKGRFTMSRDHFIDTVYLEMNRLTVEDTAVYYCVRVTFYHEGSGYYYRAGNYFDSWGKGTRVVVSA VL: DIQMTQSPSSLSASIGDRVTITCRASQDIANYLNWYQKKSGTPPKLLIFAATNLHRGVSPRFTGSGHGTHFSLTITNVQHEDFGHYFCQQSFATVGSFGQGTWVDIR",EC50 (read off the curve),[5],~5 ng/mL
"VRC16d (antibody, V domains shown) VH: EVQLSESGGGFVKPGGSLRLSCEASGFTFNNYAMSWVRQAPGKGLEWVSVTSAHGGSAYYGEFVKGRFTMSRDHFIDTVYLEMNGLTVEDTAVYYCVRVTFYHEGSGYYYRAGNYFDSWGKGTRVVVSA VL: DIQMTQSPSSLSASIGDRVTITCRASQDIANYLNWYQKKSGTPPKLLIFAATNLHRGVSPRFTGSGHGTHFSLTITNVQHEDFGNYFCQQSFATVGSFGQGTWVDIR",EC50 (read off the curve),[5],~5 ng/mL
